Target: Bs164 β-mannosidase from Bacteroides salyersiae CL02T12C01 (His6 tag removed) (Bacteroides salyersiae CL02T12C01)
Experiment: SEC-MALS; Superdex S200 10/300, 80 mM MES (pH 5.5), 200 mM NaCl, room temperature (20 ± 2 °C), 100 μl injected at 5 mg/ml

stoichiometry N: 3
Substance: Bs164 β-mannosidase from Bacteroides salyersiae CL02T12C01 (His6 tag removed) (enzyme)

Source: publication PMC7105311, “Structure and function of Bs164 β-mannosidase from Bacteroides salyersiae the founding member of glycoside hydrolase family GH164” (The Journal of Biological Chemistry, 2019)
